# Laboratory results published in paper PMC4365668, “The zinc finger proteins ZNF644 and WIZ regulate the G9a/GLP complex for gene repression”.
# T1: GST-WIZN200 (human, UniProt O95785 1-200)
# T1 sequence: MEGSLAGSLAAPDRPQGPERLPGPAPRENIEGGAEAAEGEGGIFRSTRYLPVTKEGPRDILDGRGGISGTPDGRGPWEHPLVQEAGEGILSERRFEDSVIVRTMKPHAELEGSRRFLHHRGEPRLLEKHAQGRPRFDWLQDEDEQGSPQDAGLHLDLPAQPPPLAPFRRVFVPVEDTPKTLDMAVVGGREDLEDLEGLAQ
# T2: GST-ZNF644 (human, UniProt Q9H582 1-1327)
# T2 sequence: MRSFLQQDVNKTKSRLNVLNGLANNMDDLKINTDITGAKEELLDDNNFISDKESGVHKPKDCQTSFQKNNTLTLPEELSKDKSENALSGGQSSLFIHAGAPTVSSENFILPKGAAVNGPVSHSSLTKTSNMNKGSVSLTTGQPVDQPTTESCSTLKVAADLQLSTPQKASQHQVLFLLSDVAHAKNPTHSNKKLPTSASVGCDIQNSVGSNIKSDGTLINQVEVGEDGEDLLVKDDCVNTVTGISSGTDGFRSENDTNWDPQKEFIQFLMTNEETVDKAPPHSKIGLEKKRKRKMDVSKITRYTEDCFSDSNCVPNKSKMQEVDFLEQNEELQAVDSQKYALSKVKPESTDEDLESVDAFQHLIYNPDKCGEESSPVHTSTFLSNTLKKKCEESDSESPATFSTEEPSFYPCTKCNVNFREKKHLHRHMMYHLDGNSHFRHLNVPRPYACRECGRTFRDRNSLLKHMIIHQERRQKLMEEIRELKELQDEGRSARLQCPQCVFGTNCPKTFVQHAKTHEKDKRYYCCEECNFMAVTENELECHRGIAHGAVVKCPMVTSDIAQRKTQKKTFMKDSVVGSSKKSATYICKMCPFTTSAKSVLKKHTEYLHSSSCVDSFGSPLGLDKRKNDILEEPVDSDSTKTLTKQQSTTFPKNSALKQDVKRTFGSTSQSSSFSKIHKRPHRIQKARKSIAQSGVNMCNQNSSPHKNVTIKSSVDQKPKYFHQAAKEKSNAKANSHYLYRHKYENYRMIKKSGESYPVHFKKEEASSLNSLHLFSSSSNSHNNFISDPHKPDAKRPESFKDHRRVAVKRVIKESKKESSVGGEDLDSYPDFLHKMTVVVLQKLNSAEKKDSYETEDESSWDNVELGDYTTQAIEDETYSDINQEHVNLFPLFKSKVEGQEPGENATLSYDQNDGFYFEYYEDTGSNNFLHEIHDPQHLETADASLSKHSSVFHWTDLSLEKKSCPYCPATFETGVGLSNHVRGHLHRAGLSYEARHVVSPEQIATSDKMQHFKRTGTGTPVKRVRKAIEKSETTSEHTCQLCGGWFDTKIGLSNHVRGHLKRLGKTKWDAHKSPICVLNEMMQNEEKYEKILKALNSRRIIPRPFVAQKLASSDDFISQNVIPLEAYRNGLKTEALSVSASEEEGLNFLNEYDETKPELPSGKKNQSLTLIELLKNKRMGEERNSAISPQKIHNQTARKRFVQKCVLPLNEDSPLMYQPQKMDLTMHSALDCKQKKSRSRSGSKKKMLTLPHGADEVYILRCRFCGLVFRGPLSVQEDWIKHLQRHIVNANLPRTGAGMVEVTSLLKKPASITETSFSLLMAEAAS
# T3: GST-ZNF644N300 (human, UniProt Q9H582 1-300)
# T3 sequence: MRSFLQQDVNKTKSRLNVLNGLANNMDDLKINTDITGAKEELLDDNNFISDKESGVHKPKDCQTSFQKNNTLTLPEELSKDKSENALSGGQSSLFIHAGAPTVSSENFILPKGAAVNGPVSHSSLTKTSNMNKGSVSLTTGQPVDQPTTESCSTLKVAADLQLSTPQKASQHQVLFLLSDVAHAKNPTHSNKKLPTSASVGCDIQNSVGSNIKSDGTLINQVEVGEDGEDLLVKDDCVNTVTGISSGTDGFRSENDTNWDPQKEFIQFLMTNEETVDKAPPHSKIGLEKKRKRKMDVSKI
# B1: WIZ WT DNA target (dsDNA)
# DNA 1: GAGTCTCACTCACGCGCCATTCCATTCCATTCAGATACTAGTACGGTCAG
# DNA 2: CTGACCGTACTAGTATCTGAATGGAATGGAATGGCGCGTGAGTGAGACTC
# B2: ZNF644 WT DNA target (dsDNA)
# DNA 1: GAGTAAGATCATGCCACTGGGAATCATCGAACACAGAGTGAGGCTGGG
# DNA 2: CCCAGCCTCACTCTGTGTTCGATGATTCCCAGTGGCATGATCTTACTC
# Legend:
# Experiment in all cases: EMSA; 20 mM HEPES-KOH pH 7.9, 20% glycerol, 0.2 mM EDTA, 0.1 M KCl, 0.5 mM PMSF, 1 mM DTT, 5 mM MgCl2, 1.25 ug/ul BSA, 0.2 nM DNA, 2 h at 4 C; 7.5% PAGE in TBE
# Conditions in all cases: protein: recombinant; tags: GST; label: 5'-32P; blunt
# GST-WIZ = GST-WIZ (human, UniProt O95785 1-1651)
# GST-WIZN200 = biological target: T1, GST-WIZN200
# GST-ZNF644 = biological target: T2, GST-ZNF644
# GST-ZNF644N300 = biological target: T3, GST-ZNF644N300
Binder,binding result (GST-WIZ),binding result (GST-WIZN200),binding result (GST-ZNF644),binding result (GST-ZNF644N300)
B1,binds,no binding,,
B2,,,binds,no binding
